According to patent publication US12558350B2, “Compositions and methods for treatment” (Bausch + Lomb Ireland Limited, priority 2005, dated 2026):

What was measured:
[1] = target: T1, LFA-1/ICAM-1 (Homo sapiens, UniProt P05107+P20701); assay: LFA-1/ICAM-1 ligand binding ELISA with Schild analysis
T1 construct: made in house; host or cells: human 293 cells
Excerpt: (§1) Pharmacologic Analysis of Drug-Receptor Interaction, Lippincott-Raven, Philadelphia). […] The order of antagonist concentrations was, -[…]-(lowest added antagonist concentration), -Δ-, -μ-, -♦-, -▪-, -σ- to -λ-(highest antagonist concentration). The fits of the data are shown as the solid lines. The data shown are from one plate and are representative of a minimum of two experiments.
This model is based upon the assumptions that equiactive responses in an assay are the result of equivalent occupancy of receptor by ligand and that maximal binding is unchanged by the presence of antagonist. In a Schild analysis, the dose ratio is the ratio of the EC50 values in the presence and absence of antagonist and is a measure of the ligand concentrations leading to equiactive responses. This dose ratio was determined for each concentration of antagonist and the Schild regressions were plotted as shown in FIG. 11.
(§2) In all cases the ligand was added concurrently with the antagonist. The plates were incubated for 6 h at 37° C. to approach equilibrium conditions after antagonist and ligand addition, before wash and addition of the detection antibody. The EC50 values for each curve were determined by fitting with a four parameter model as described above. […] The slopes of the plots of the Log (Conc. ratio −1) vs. Antagonist concentration are calculated by fitting the line to the linear equation, Y=A+BX.

[2] = target: T2, LFA-1 (Homo sapiens, UniProt P05107+P20701); assay: LFA-1/small molecule ligand binding ELISA; conditions: FIG. 10B, D, F
T2 construct: made in house; host or cells: human 293 cells
Protocol: as §1, §2

[3] = target: T2, LFA-1; assay: LFA-1/small molecule ELISA, antagonist competition with compound 2B; conditions: 25 nM compound 2B; FIG. 8B; read-out: IC50, inhibition of binding of compound 2B to LFA-1
Protocol: 96-well plates were coated with 5 μg/ml (33.3 nM) mouse anti-human 82 integrin (a non-function blocking antibody) in phosphate-buffered saline (PBS) overnight at 4° C. The plates were blocked with assay buffer (20 mM Hepes, pH 7.2, 140 mM NaCl, 1 mM MnCl2, 0.5% bovine serum albumin (BSA) and 0.05% Tween-20) for 1 hour at room temperature. After washing in buffer (50 mM Tris-HCl, pH 7.5, 100 mM NaCl, 1 mM MnCl2, and 0.05% Tween-20), 8 nM LFA-1 (LFA-1/ICAM-1 ELISA) or 2 nM LFA-1 (LFA-1/small molecule ELISA) were added, followed by incubation for 1 h at 37° C. […] In the LFA-1/small molecule ELISA, the diluted antagonists and 25 nM compound 2B were added concurrently to the plates, followed by a 2-hour incubation at 37° C. Sheep anti-fluorescein-HRP was added after a wash and incubated for one hour at 37° C. For both assays, after washing, the bound HRP-conjugated antibodies were detected by addition of tetramethylbenzidine (TMB) followed by measurement of the absorbance of the product at 450 nm after the addition of 1 M H3PO4 to stop the reaction. The IC50 values for each curve were determined by fitting to the four-parameter equation described above using KaleidaGraph software.

T1 sequence (P20701 26-1170): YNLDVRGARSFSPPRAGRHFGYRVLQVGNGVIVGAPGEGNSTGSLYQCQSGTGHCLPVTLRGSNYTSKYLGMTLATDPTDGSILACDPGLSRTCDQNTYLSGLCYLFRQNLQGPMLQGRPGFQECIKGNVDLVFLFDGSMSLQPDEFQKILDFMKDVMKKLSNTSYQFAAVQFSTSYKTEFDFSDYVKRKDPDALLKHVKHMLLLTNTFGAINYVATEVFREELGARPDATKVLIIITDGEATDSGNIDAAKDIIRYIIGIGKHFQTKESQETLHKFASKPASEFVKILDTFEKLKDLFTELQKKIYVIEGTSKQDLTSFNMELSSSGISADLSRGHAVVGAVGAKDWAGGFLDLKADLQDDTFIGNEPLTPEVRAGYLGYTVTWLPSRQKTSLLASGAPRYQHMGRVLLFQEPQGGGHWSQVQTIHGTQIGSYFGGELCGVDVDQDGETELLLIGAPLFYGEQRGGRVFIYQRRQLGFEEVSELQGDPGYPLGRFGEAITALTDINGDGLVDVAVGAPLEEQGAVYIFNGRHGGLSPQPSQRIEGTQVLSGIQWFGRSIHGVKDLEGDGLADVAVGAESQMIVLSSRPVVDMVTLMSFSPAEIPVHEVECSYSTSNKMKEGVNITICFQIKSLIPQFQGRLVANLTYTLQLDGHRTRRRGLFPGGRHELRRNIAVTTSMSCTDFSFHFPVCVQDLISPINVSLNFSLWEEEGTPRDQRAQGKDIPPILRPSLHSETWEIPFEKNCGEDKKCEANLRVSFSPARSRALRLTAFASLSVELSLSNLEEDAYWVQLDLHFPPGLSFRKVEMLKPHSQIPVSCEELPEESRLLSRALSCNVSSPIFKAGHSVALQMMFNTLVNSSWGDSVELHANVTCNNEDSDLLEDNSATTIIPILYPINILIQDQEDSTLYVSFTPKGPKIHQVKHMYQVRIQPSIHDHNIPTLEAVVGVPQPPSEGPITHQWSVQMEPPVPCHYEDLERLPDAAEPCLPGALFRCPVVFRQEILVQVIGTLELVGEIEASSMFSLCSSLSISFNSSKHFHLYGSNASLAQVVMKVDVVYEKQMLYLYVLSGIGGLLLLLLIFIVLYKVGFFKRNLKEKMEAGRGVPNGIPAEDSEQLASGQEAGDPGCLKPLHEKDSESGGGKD
T1 sequence (P05107 23-769): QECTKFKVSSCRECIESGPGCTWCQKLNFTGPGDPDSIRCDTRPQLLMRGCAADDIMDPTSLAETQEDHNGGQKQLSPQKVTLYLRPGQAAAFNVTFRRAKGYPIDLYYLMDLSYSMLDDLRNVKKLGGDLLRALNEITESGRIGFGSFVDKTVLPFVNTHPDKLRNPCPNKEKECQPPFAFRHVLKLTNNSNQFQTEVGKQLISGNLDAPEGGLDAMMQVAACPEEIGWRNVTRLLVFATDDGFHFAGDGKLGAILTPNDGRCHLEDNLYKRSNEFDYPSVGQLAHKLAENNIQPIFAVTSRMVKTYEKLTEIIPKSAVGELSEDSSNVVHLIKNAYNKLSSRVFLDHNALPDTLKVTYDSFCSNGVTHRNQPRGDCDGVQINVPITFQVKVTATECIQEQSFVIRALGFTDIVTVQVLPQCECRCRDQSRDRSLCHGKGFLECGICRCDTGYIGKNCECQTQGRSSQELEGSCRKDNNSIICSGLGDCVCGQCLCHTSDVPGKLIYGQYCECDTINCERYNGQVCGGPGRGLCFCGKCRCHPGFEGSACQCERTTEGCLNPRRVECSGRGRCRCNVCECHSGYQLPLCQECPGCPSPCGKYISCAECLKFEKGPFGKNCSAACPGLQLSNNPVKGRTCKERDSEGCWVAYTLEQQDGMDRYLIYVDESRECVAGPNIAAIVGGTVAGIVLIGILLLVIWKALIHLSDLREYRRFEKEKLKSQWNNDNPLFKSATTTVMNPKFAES
T2 sequence (P20701 26-1170): as the sequence (P20701 26-1170) above
T2 sequence (P05107 23-769): as the sequence (P05107 23-769) above

B1: sICAM-1: truncated form of native ICAM-1 without the transmembrane and cytoplasmic domains, with intact LFA-1 binding epitope; R&D Systems (protein, UniProt P05362 28-480, looked up)
extracellular domain: QTSVSPSKVILPRGGSVLVTCSTSCDQPKLLGIETPLPKKELLLPGNNRKVYELSNVQEDSQPMCYSNCPDGQSTAKTFLTVYWTPERVELAPLPSWQPVGKNLTLRCQVEGGAPRANLTVVLLRGEKELKREPAVGEPAEVTTTVLVRRDHHGANFSCRTELDLRPQGLELFENTSAPYQLQTFVLPATPPQLVSPRVLEVDTQGTVVCSLDGLFPVSEAQVHLALGDQRLNPTVTYGNDSFSAKASVSVTAEDEGTQRLTCAVILGNQSQETLQTVTIYSFPAPNVILTKPEVSEGTEVTVKCEAHPRAKVTLNGVPAQPLGPRAQLLLKATPEDNGRSFSCSATLEVAGQLIHKNQTRELRVLYGPRLDERDCPGNWTWPENSQQTPMCQAWGNPLPELKCLKDGTFPLPIGESVTVTRDLEGTYLCRARSTQGEVTRKVTVNVLSPRYE
modifications: extracellular domain
notes: R&D Systems
effect of increasing antagonist concentration on ICAM-1-Ig binding curves ([1]; FIG. 10A, C, E): shifted the ICAM-1-Ig binding curves rightward to higher EC50 values | slope of Schild regression ([1]; ligand ICAM-1-Ig, FIG. 11): 1.26 | y-intercept of Schild regression ([1]; ligand ICAM-1-Ig, FIG. 11): 8.51 | effect of increasing antagonist concentration on compound 2B binding curves [2]: showed a similar effect | IC50 [3]: 1.2 µM
